{"source": "paper PMC11272775", "about": "“Epigenetic memory is governed by an effector recruitment specificity toggle in Heterochromatin Protein 1” (Nature Communications, 2024)", "test_system": "Swi6-Y (Swi6-T278Y) (Schizosaccharomyces pombe)", "test": "EMSA", "settings": "20 mM Hepes pH 7.5, 4 mM Tris, 80 mM KCl, 0.1% Igepal CA-630, 0.2 mM EDTA, 2 mM DTT, 10% glycerol, 10 nM mononucleosome, 30 °C 45 min, 6% acrylamide 0.5x TBE …"}
{"substance": "H3K9me0 mononucleosome", "values": [{"measurement": "binding signal (fold weaker than H3K9me3)", "setting": "H3K9me0 histone, unmodified H3 (H3K9me0)", "value": 2.3}]}
{"substance": "H3K9me3 mononucleosome", "values": [{"measurement": "K half", "setting": "H3K9me3 histone, histone H3K9me3 (DNA unmodified)", "value": 39, "unit": "nM"}]}
